The text below walks through data of paper PMC10011572 (Nature Communications, 2023).

Assay [1] has as its target zanidatamab precursor (human). The experiment in a line: SPR; zani precursor captured on immobilised goat anti-human Fc (CM5, Biacore T200), HER2 ECD 3.75-60 nM flowed; single-cycle, 1:1 Langmuir fit; apparent; capture/MW 2.00002417 RU/kDa. (In SPR one partner is held on a chip, and binding of the other changes the refractive index at the surface.)
In assay [2] the target is zanidatamab precursor (human). The assay can be described thus: SPR; zani precursor captured on immobilised goat anti-human Fc (CM5, Biacore T200), HER2 ECD 3.75-60 nM flowed; single-cycle, 1:1 Langmuir fit; apparent; capture/MW 4.911623982 RU/kDa.
In assay [3] the target is zanidatamab precursor (human). The assay can be described thus: SPR; zani precursor captured on immobilised goat anti-human Fc (CM5, Biacore T200), HER2 ECD 3.75-60 nM flowed; single-cycle, 1:1 Langmuir fit; apparent; capture/MW 1.970411967 RU/kDa.
Assay [4] addresses zanidatamab (human). The assay can be described thus: SPR; zani captured on immobilised goat anti-human Fc (CM5, Biacore T200), HER2 ECD 3.75-60 nM flowed; single-cycle, 1:1 Langmuir fit; apparent; capture/MW 2.080156929 RU/kDa.
For assay [5], the target named is zanidatamab (human). The assay can be described thus: SPR; zani captured on immobilised goat anti-human Fc (CM5, Biacore T200), HER2 ECD 3.75-60 nM flowed; single-cycle, 1:1 Langmuir fit; apparent; capture/MW 0.273135738 RU/kDa.
Assay [6] addresses zanidatamab precursor (human). The assay can be described thus: SPR; zani precursor captured on immobilised goat anti-human Fc (CM5, Biacore T200), HER2 ECD 3.75-60 nM flowed; single-cycle, 1:1 Langmuir fit; apparent; capture/MW 2.899594865 RU/kDa.
Assay [7] concerns the target zanidatamab precursor (human). The experiment in a line: SPR; zani precursor captured on immobilised goat anti-human Fc (CM5, Biacore T200), HER2 ECD 3.75-60 nM flowed; single-cycle, 1:1 Langmuir fit; apparent; capture/MW 1.267722403 RU/kDa.
Assay [8] concerns the target zanidatamab precursor (human). The experiment in a line: SPR; zani precursor captured on immobilised goat anti-human Fc (CM5, Biacore T200), HER2 ECD 3.75-60 nM flowed; single-cycle, 1:1 Langmuir fit; apparent; capture/MW 0.356947091 RU/kDa.
The target in assay [9] is zanidatamab precursor (human). The experiment in a line: SPR; zani precursor captured on immobilised goat anti-human Fc (CM5, Biacore T200), HER2 ECD 3.75-60 nM flowed; single-cycle, 1:1 Langmuir fit; apparent; capture/MW 0.164867939 RU/kDa.
Assay [10] concerns the target zanidatamab precursor (human). The assay can be described thus: SPR; zani precursor captured on immobilised goat anti-human Fc (CM5, Biacore T200), HER2 ECD 3.75-60 nM flowed; single-cycle, 1:1 Langmuir fit; apparent; capture/MW 0.312928952 RU/kDa.
Assay [11] addresses zanidatamab precursor (human). The experiment in a line: SPR; zani precursor captured on immobilised goat anti-human Fc (CM5, Biacore T200), HER2 ECD 3.75-60 nM flowed; single-cycle, 1:1 Langmuir fit; apparent; capture/MW 0.423374464 RU/kDa.
Assay [12] concerns the target zanidatamab precursor (human). The experiment in a line: SPR; zani precursor captured on immobilised goat anti-human Fc (CM5, Biacore T200), HER2 ECD 3.75-60 nM flowed; single-cycle, 1:1 Langmuir fit; apparent; capture/MW 4.096087916 RU/kDa.
Assay [13] addresses zanidatamab (human). The assay can be described thus: SPR; zani captured on immobilised goat anti-human Fc (CM5, Biacore T200), HER2 ECD 3.75-60 nM flowed; single-cycle, 1:1 Langmuir fit; apparent; capture/MW 0.856252506 RU/kDa.
The target of assay [14] is zanidatamab precursor (human). The assay can be described thus: SPR; zani precursor captured on immobilised goat anti-human Fc (CM5, Biacore T200), HER2 ECD 3.75-60 nM flowed; single-cycle, 1:1 Langmuir fit; apparent; capture/MW 0.365750719 RU/kDa.
In assay [15] the target is zanidatamab precursor (human). The assay can be described thus: SPR; zani precursor captured on immobilised goat anti-human Fc (CM5, Biacore T200), HER2 ECD 3.75-60 nM flowed; single-cycle, 1:1 Langmuir fit; apparent; capture/MW 0.790725842 RU/kDa.
Assay [16] concerns the target zanidatamab precursor (human). The assay can be described thus: SPR; zani precursor captured on immobilised goat anti-human Fc (CM5, Biacore T200), HER2 ECD 3.75-60 nM flowed; single-cycle, 1:1 Langmuir fit; apparent; capture/MW 1.154875901 RU/kDa.
The target in assay [17] is zanidatamab precursor (human). The assay can be described thus: SPR; zani precursor captured on immobilised goat anti-human Fc (CM5, Biacore T200), HER2 ECD 3.75-60 nM flowed; single-cycle, 1:1 Langmuir fit; apparent; capture/MW 2.483423369 RU/kDa.
For assay [18], the target named is zanidatamab precursor (human). The assay can be described thus: SPR; zani precursor captured on immobilised goat anti-human Fc (CM5, Biacore T200), HER2 ECD 3.75-60 nM flowed; single-cycle, 1:1 Langmuir fit; apparent; capture/MW 0.083234299 RU/kDa.
For assay [19], the target named is zanidatamab (human). The experiment in a line: SPR; zani captured on immobilised goat anti-human Fc (CM5, Biacore T200), HER2 ECD 3.75-60 nM flowed; single-cycle, 1:1 Langmuir fit; apparent; capture/MW 1.217496547 RU/kDa.
Assay [20] has as its target zanidatamab (human). The experiment in a line: SPR; zani captured on immobilised goat anti-human Fc (CM5, Biacore T200), HER2 ECD 3.75-60 nM flowed; single-cycle, 1:1 Langmuir fit; apparent; capture/MW 0.793775709 RU/kDa.
Assay [21] addresses Zanidatamab (human). The assay can be described thus: SPR; Biacore T200; goat anti-human Fc polyclonal Ab amine-coupled to about 2000 RU on a CM5 chip captures the antibody; increasing concentrations of HER2 ECD injected; single-cycle kinetics, 1:1 binding model; KD of zanidatamab called apparent.
The target in assay [22] is zanidatamab precursor (human). The assay can be described thus: SPR; zani precursor captured on immobilised goat anti-human Fc (CM5, Biacore T200), HER2 ECD 3.75-60 nM flowed; single-cycle, 1:1 Langmuir fit; apparent; capture/MW 0.703489894 RU/kDa.
Assay [23] deals with zanidatamab (human). The experiment in a line: SPR; zani captured on immobilised goat anti-human Fc (CM5, Biacore T200), HER2 ECD 3.75-60 nM flowed; single-cycle, 1:1 Langmuir fit; apparent; capture/MW 0.62396698 RU/kDa.
The target of assay [24] is zanidatamab precursor (human). The experiment in a line: SPR; zani precursor captured on immobilised goat anti-human Fc (CM5, Biacore T200), HER2 ECD 3.75-60 nM flowed; single-cycle, 1:1 Langmuir fit; apparent; capture/MW 0.555428881 RU/kDa.
The target in assay [25] is zanidatamab precursor (human). The experiment in a line: SPR; zani precursor captured on immobilised goat anti-human Fc (CM5, Biacore T200), HER2 ECD 3.75-60 nM flowed; single-cycle, 1:1 Langmuir fit; apparent; capture/MW 1.008415548 RU/kDa.
For assay [26], the target named is zanidatamab precursor (human). The experiment in a line: SPR; zani precursor captured on immobilised goat anti-human Fc (CM5, Biacore T200), HER2 ECD 3.75-60 nM flowed; single-cycle, 1:1 Langmuir fit; apparent; capture/MW 4.555477221 RU/kDa.
For assay [27], the target named is zanidatamab precursor (human). The assay can be described thus: SPR; zani precursor captured on immobilised goat anti-human Fc (CM5, Biacore T200), HER2 ECD 3.75-60 nM flowed; single-cycle, 1:1 Langmuir fit; apparent; capture/MW 0.571435477 RU/kDa.
For assay [28], the target named is zanidatamab precursor (human). The assay can be described thus: SPR; zani precursor captured on immobilised goat anti-human Fc (CM5, Biacore T200), HER2 ECD 3.75-60 nM flowed; single-cycle, 1:1 Langmuir fit; apparent; capture/MW 3.817573146 RU/kDa.
The target of assay [29] is zanidatamab precursor (human). The experiment in a line: SPR; zani precursor captured on immobilised goat anti-human Fc (CM5, Biacore T200), HER2 ECD 3.75-60 nM flowed; single-cycle, 1:1 Langmuir fit; apparent; capture/MW 3.104479294 RU/kDa.
For assay [30], the target named is zanidatamab (human). The assay can be described thus: SPR; zani captured on immobilised goat anti-human Fc (CM5, Biacore T200), HER2 ECD 3.75-60 nM flowed; single-cycle, 1:1 Langmuir fit; apparent; capture/MW 0.484595665 RU/kDa.
The target in assay [31] is zanidatamab (human). The experiment in a line: SPR; zani captured on immobilised goat anti-human Fc (CM5, Biacore T200), HER2 ECD 3.75-60 nM flowed; single-cycle, 1:1 Langmuir fit; apparent; capture/MW 1.306405834 RU/kDa.
Assay [32] deals with Zanidatamab (human). The experiment in a line: AUC; sedimentation velocity, HER2 ECD and antibody equimolar (1x), 1 mg/mL total protein in DPBS, 20 °C, c(s) model.
For assay [33], the target named is zanidatamab (human). The experiment in a line: SPR; zani captured on immobilised goat anti-human Fc (CM5, Biacore T200), HER2 ECD 3.75-60 nM flowed; single-cycle, 1:1 Langmuir fit; apparent; capture/MW 2.37652122 RU/kDa.
In assay [34] the target is zanidatamab precursor (human). The assay can be described thus: SPR; zani precursor captured on immobilised goat anti-human Fc (CM5, Biacore T200), HER2 ECD 3.75-60 nM flowed; single-cycle, 1:1 Langmuir fit; apparent; capture/MW 2.11927331 RU/kDa.
The target in assay [35] is T1, Recombinant human HER2 ECD (Homo sapiens, UniProt P04626).
T1 construct: human epidermal growth factor receptor 2 (HER2), extracellular domain, recombinant; printed mass 72 kDa; The supplier is named for the SPR only; source: bought: Acro Inc
The experiment in a line: SPR; Biacore T200; goat anti-human Fc polyclonal Ab amine-coupled to about 2000 RU on a CM5 chip captures the antibody; increasing concentrations of HER2 ECD injected; single-cycle kinetics, 1:1 binding model; KD of zanidatamab called apparent. The following applies: both partners purified.

Consider “Recombinant human HER2 ECD (from UniProt P04626 23-652) (domain or fragment)”, for which the Kd in assay [1] is 0.152 nM; in assay [2], 0.0358 nM; in assay [3], 0.46 nM; in assay [4], 0.0989 nM; in assay [5], 0.149 nM; in assay [6], 0.318 nM. The Kd in assay [7] was 0.654 nM; in [8], 0.927 nM; in assay [9], 0.879 nM; in assay [10], 0.663 nM; in assay [11] it was 2.02 nM; in assay [12], 0.119 nM. Moreover, the Kd in assay [13] worked out at 0.174 nM; in [14], 1.12 nM; in [15], 0.992 nM; in assay [16], 0.743 nM; in [17] it was 0.0931 nM; in [18], 0.89 nM. Besides, the Kd in assay [19] is 0.0932 nM; in [20] it was 0.0997 nM; in assay [21], 0.74 nM; in assay [22] it was 0.992 nM; in assay [23] it was 0.169 nM; in [24], 0.679 nM. Besides, the Kd in assay [25] turned out to be 0.49 nM; in [26] it was 0.0468 nM; in assay [27], 0.687 nM; in assay [28], 0.136 nM; in assay [29] it was 0.311 nM; in [30], 0.175 nM. For the same molecule, the Kd amounted to 0.0913 nM in assay [31], 0.0801 nM in [33] and 0.475 nM in [34]. In assay [32], this molecule gave a percent of the total peak area in multimeric complexes of 95%.

B1: Monovalent one-armed Ab (OAA) with the affinity-improved anti-HER2-ECD2 Fab (antibody, V domains shown)
VH: EVQLVESGGGLVQPGGSLRLSCAASGFTFADYTMDWVRQAPGKGLEWVGDVNPNSGGSIYNQRFKGRFTFSVDRSKNTLYLQMNSLRAEDTAVYYCARNLGPSFYFDYWGQGTLVTVSS
VL: DIQMTQSPSSLSASVGDRVTITCKASQDVSIGVAWYQQKPGKAPKLLIYSASYRYTGVPSRFSGSGSGTDFTLTISSLQPEDFATYYCQQYYIYPATFGQGTKVEIK
notes: as the light chain of m3; also called one variant; copies: + +
On to B1, for which the Kd in assay [35] stood at 1.7 nM.
